Data: the supplement of paper PMC10567573

B1: ZBTB22 (parent)
chain: RPFDCPVCNKKFKMKHHLTEHMKT

Variants of: B1
Test: protein stability index of a GFP-peptide fusion (GPS, HEK-293T) (PSI 1-6); higher = more stable
Settings: c terminus: a fixed tail appended
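Also: lentivirally expressed fusions sorted by FACS into six bins by GFP to DsRed ratio, PSI derived from sequencing read proportions per bin multiplied by bin number.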

Row | Variant | protein stability index
1 | RPFDCPVCNKKFKMKHHLTGHMKT | 2.73
2 | RPFDCPVCNKKFKMKHHLTLHMKT | 1.83
3 | RPFDCPVCNKKFKMKHHLTWHMKT | 2.08
4 | RPFDCPVCNKKFKMKHHLTTHMKT | 2.31
5 | RPFDCPVCNKKFKMKHHLTDHMKT | 2.99
6 | RPFDCPVCNKKFKMKHHLTYHMKT | 1.85
7 | RPFDCPVCNKKFKMKHHLTMHMKT | 2.62
8 | RPFDCPVCNKKFKMKHHLTHHMKT | 2.44
9 | RPFDCPVCNKKFKMKHHLTCHMKT | 2.83
10 | RPFDCPVCNKKFKMKHHLTAHMKT | 2.78
11 | RPFDCPVCNKKFKMKHHLTQHMKT | 2.8
12 | RPFDCPVCNKKFKMKHHLTVHMKT | 2.36
13 | RPFDCPVCNKKFKMKHHLTPHMKT | 2.11
14 | RPFDCPVCNKKFKMKHHLTIHMKT | 2.21
15 | RPFDCPVCNKKFKMKHHLTNHMKT | 3
16 | RPFDCPVCNKKFKMKHHLTSHMKT | 1.93
17 | RPFDCPVCNKKFKMKHHLTFHMKT | 2.21
18 | RPFDCPVCNKKFKMKHHLTRHMKT | 3.45
19 | RPFDCPVCNKKFKMKHHLTKHMKT | 3.1
20 | RPFDCPVCNKKFKMKHNLTEHMKT | 2.62
21 | RPFDCPVCNKKFKMKHWLTEHMKT | 2.08
22 | RPFDCPVCNKKFKMKHPLTEHMKT | 2.19
23 | RPFDCPVCNKKFKMKHALTEHMKT | 2.17
24 | RPFDCPVCNKKFKMKHKLTEHMKT | 3.1

Row | Variant | protein stability index
25 | RPFDCPVCNKKFKMKHDLTEHMKT | 3.07
26 | RPFDCPVCNKKFKMKHRLTEHMKT | 2.18
27 | RPFDCPVCNKKFKMKHFLTEHMKT | 1.73
28 | RPFDCPVCNKKFKMKHGLTEHMKT | 1.74
29 | RPFDCPVCNKKFKMKHVLTEHMKT | 2.24
30 | RPFDCPVCNKKFKMKHLLTEHMKT | 1.94
31 | RPFDCPVCNKKFKMKHILTEHMKT | 1.79
32 | RPFDCPVCNKKFKMKHELTEHMKT | 3.42
33 | RPFDCPVCNKKFKMKHYLTEHMKT | 1.95
34 | RPFDCPVCNKKFKMKHMLTEHMKT | 2.42
35 | RPFDCPVCNKKFKMKHQLTEHMKT | 2.74
36 | RPFDCPVCNKKFKMKHCLTEHMKT | 2.25
37 | RPFDCPVCNKKFKMKHTLTEHMKT | 2.15
38 | RPFDCPVCNKKFKMKHSLTEHMKT | 2.42
39 | RPFDCPVCNKKFKMKHHLTEGMKT | 2.38
40 | RPFDCPVCNKKFKMKHHLTEEMKT | 2.88
41 | RPFDCPVCNKKFKMKHHLTECMKT | 3.33
42 | RPFDCPVCNKKFKMKHHLTELMKT | 1.45
43 | RPFDCPVCNKKFKMKHHLTEQMKT | 2.34
44 | RPFDCPVCNKKFKMKHHLTEPMKT | 2.37
45 | RPFDCPVCNKKFKMKHHLTEDMKT | 2.37
46 | RPFDCPVCNKKFKMKHHLTERMKT | 2.25
47 | RPFDCPVCNKKFKMKHHLTEKMKT | 2.25
48 | RPFDCPVCNKKFKMKHHLTEAMKT | 2.74

Row | Variant | protein stability index
49 | RPFDCPVCNKKFKMKHHLTEIMKT | 1.84
50 | RPFDCPVCNKKFKMKHHLTEFMKT | 2.06
51 | RPFDCPVCNKKFKMKHHLTENMKT | 2.38
52 | RPFDCPVCNKKFKMKHHLTESMKT | 2.52
53 | RPFDCPVCNKKFKMKHHLTEMMKT | 1.54
54 | RPFDCPVCNKKFKMKYHLTEHMKT | 2.28
55 | RPFDCPVCNKKFKMKWHLTEHMKT | 2.27
56 | RPFDCPVCNKKFKMKVHLTEHMKT | 2.08
57 | RPFDCPVCNKKFKMKHHLIEHMKT | 3.07
58 | RPFDCPVCNKKFKMKHHLWEHMKT | 2.02
59 | RPFDCPVCNKKFKMKHHLLEHMKT | 2.8
60 | RPFDCPVCNKKFKMKHHLREHMKT | 3.34
61 | RPFDCPVCNKKFKMKHHLNEHMKT | 2.88
62 | RPFDCPVCNKKFKMKHHLQEHMKT | 2.33
63 | RPFDCPVCNKKFKMKHHLPEHMKT | 2.48
64 | RPFDCPVCNKKFKMKHHLMEHMKT | 3.18
65 | RPFDCPVCNKKFKMKHHLGEHMKT | 3.17
66 | RPFDCPVCNKKFKMKHHLKEHMKT | 2.48
67 | RPFDCPVCNKKFKMKHHLCEHMKT | 4.25
68 | RPFDCPVCNKKFKMKHHLVEHMKT | 3
69 | RPFDCPVCNKKFKMKHHLFEHMKT | 2.28
70 | RPFDCPVCNKKFKMKHHLDEHMKT | 3.19
71 | RPFDCPVCNKKFKMKHHLEEHMKT | 3.39
72 | RPFDCPVCNKKFKMKHHLHEHMKT | 2.8

Row | Variant | protein stability index
73 | RPFDCPVCNKKFKMKHHLYEHMKT | 2.41
74 | RPFDCPVCNKKFKMKHHLSEHMKT | 2.35
75 | RPFDCPVCNKKFKMKHHLAEHMKT | 2.89
76 | RPFDCPVCNKKFKMKHHVTEHMKT | 3.5
77 | RPFDCPVCNKKFKMKHHTTEHMKT | 2.67
78 | RPFDCPVCNKKFKMKHHGTEHMKT | 3.36
79 | RPFDCPVCNKKFKMKHHQTEHMKT | 2.58
80 | RPFDCPVCNKKFKMKHHKTEHMKT | 2.78
81 | RPFDCPVCNKKFKMKHHDTEHMKT | 2.39
82 | RPFDCPVCNKKFKMKHHATEHMKT | 2.93
83 | RPFDCPVCNKKFKMKHHHTEHMKT | 3.08
84 | RPFDCPVCNKKFKMKHHPTEHMKT | 2.37
85 | RPFDCPVCNKKFKMKHHMTEHMKT | 2.19
86 | RPFDCPVCNKKFKMKHHSTEHMKT | 2.44
87 | RPFDCPVCNKKFKMKHHNTEHMKT | 2.59
88 | RPFDCPVCNKKFKMKHHITEHMKT | 2.1
89 | RPFDCPVCNKKFKMKHHCTEHMKT | 4.01
90 | RPFDCPVCNKKFKMKHHFTEHMKT | 2.7
91 | RPFDCPVCNKKFKMKHHRTEHMKT | 2.89
92 | RPFDCPVCNKKFKMKHHETEHMKT | 2.78
93 | RPFDCPVCNKKFKMKHHYTEHMKT | 2.25
94 | RPFDCPVCNKKFKMKHHWTEHMKT | 2.59
